# Laboratory results reported in patent US20260049138A1 (Chugai, published 2026).
# Molecular target: T1, CD3ε homodimer protein (human, UniProt P07766 23-126, limits assumed)
# T1 construct: also called CD3 (CD3ε)
# Assay: SPR Biacore T200, CD3ε homodimer on chip;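 further: Light-chain single-residue variant antibodies injected over amine-coupled CD3ε homodimer on a CM4 chip at 25 °C, bound amount divided by that of the GLS3000-containing antibody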
# Experimental: Each one-amino acid altered form constructed, expressed, and purified in the paragraph (6-2) was evaluated using Biacore T200 (GE Healthcare Japan Corp.). An appropriate amount of CD3ε homodimer protein was immobilized onto Sensor chip CM4 (GE Healthcare Japan Corp.) by the amine coupling method. Then, the antibody having an appropriate concentration was injected thereto as an analyte and allowed to interact with the CD3ε homodimer protein on the sensor chip. Then, the sensor chip was regenerated by the injection of 10 mmol/L glycine-HCl (pH 1.5). The assay was conducted at 25° C., and HBS-EP+ (GE Healthcare Japan Corp.) was used as a running buffer. […] Each parameter was calculated using Biacore T200 Evaluation Software (GE Healthcare Japan Corp.).
# Specifically, when the amount of the GLS3000-containing antibody bound was defined as X and the amount of the L chain one-amino acid altered form bound was defined as Y, a value of Z (ratio of amounts bound)=Y/X was used.
# T1 sequence (P07766 23-126 limits assumed): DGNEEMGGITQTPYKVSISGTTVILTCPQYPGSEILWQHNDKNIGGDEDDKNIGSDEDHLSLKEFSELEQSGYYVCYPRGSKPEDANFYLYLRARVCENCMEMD
row,Binder,ratio of amount bound vs unaltered GLS3000
1,"GLS3000 L33M one-arm antibody (antibody, human IgG1, kappa, L234A L235A, N297A, name in Kabat numbering) heavy: QVQLVESGGGVVQPGRSLRLSCAASGFTFSNAWMHWVRQAPGKGLEWVAQIKAKSNNYATYYAESVKGRFTISRDDSKNSLYLQMNSLKTEDTAVYYCRYVHYGAYYGVDAWGQGTTVTVSSASTKGPSVFPLAPSSKSTSGGTAALGCLVKDYFPEPVTVSWNSGALTSGVHTFPAVLQSSGLYSLSSVVTVPSSSLGTQTYICNVNHKPSNTKVDKKVEPKSCDKTHTCPPCPAPEAAGGPSVFLFPPKPKDTLMISRTPEVTCVVVDVSHEDPEVKFNWYVDGVEVHNAKTKPREEQYASTYRVVSVLTVLHQDWLNGKEYKCKVSNKALPAPIEKTISKAKGQPREPQVYTLPPSRCELTKNQVSLSCAVKGFYPSDIAVEWESNGQPENNYKTTPPVLDSDGSFFLVSKLTVDKSRWQQGNVFSCSVMHEALHNHYTQKSLSLSPDYKDDDDK EPKSSDKTHTCPPCPAPELLGGPSVFLFPPKPKDTLMISRTPEVTCVVVDVSHEDPEVKFNWYVDGVEVHNAKTKPREEQYNSTYRVVSVLTVLHQDWLNGKEYKCKVSNKALPAPIEKTISKAKGQPREPQVCTLPPSRDELTKNQVSLWCLVKGFYPSDIAVEWESNGQPENNYKTTPPVLDSDGSFFLYSKLTVDKSRWQQGNVFSCSVMHEALHNRYTQKSLSLSP light: DIVMTQSPLSLPVTPGEPASISCRSSQSLVHSNRNTYMHWYQQKPGQAPRLLIYKVSNRFSGVPDRFSGSGSGTDFTLKISRVEAEDVGVYYCGQGTQVPYTFGQGTKLEIKRTVAAPSVFIFPPSDEQLKSGTASVVCLLNNFYPREAKVQWKVDNALQSGNSQESVTEQDSKDSTYSLSSTLTLSKADYEKHKVYACEVTHQGLSSPVTKSFNRGEC",0.93
2,"GLS3000 L33P one-arm antibody (antibody, human IgG1, kappa, L234A L235A, N297A, name in Kabat numbering) heavy: QVQLVESGGGVVQPGRSLRLSCAASGFTFSNAWMHWVRQAPGKGLEWVAQIKAKSNNYATYYAESVKGRFTISRDDSKNSLYLQMNSLKTEDTAVYYCRYVHYGAYYGVDAWGQGTTVTVSSASTKGPSVFPLAPSSKSTSGGTAALGCLVKDYFPEPVTVSWNSGALTSGVHTFPAVLQSSGLYSLSSVVTVPSSSLGTQTYICNVNHKPSNTKVDKKVEPKSCDKTHTCPPCPAPEAAGGPSVFLFPPKPKDTLMISRTPEVTCVVVDVSHEDPEVKFNWYVDGVEVHNAKTKPREEQYASTYRVVSVLTVLHQDWLNGKEYKCKVSNKALPAPIEKTISKAKGQPREPQVYTLPPSRCELTKNQVSLSCAVKGFYPSDIAVEWESNGQPENNYKTTPPVLDSDGSFFLVSKLTVDKSRWQQGNVFSCSVMHEALHNHYTQKSLSLSPDYKDDDDK EPKSSDKTHTCPPCPAPELLGGPSVFLFPPKPKDTLMISRTPEVTCVVVDVSHEDPEVKFNWYVDGVEVHNAKTKPREEQYNSTYRVVSVLTVLHQDWLNGKEYKCKVSNKALPAPIEKTISKAKGQPREPQVCTLPPSRDELTKNQVSLWCLVKGFYPSDIAVEWESNGQPENNYKTTPPVLDSDGSFFLYSKLTVDKSRWQQGNVFSCSVMHEALHNRYTQKSLSLSP light: DIVMTQSPLSLPVTPGEPASISCRSSQSLVHSNRNTYPHWYQQKPGQAPRLLIYKVSNRFSGVPDRFSGSGSGTDFTLKISRVEAEDVGVYYCGQGTQVPYTFGQGTKLEIKRTVAAPSVFIFPPSDEQLKSGTASVVCLLNNFYPREAKVQWKVDNALQSGNSQESVTEQDSKDSTYSLSSTLTLSKADYEKHKVYACEVTHQGLSSPVTKSFNRGEC",0.3
3,"GLS3000 L33I one-arm antibody (antibody, human IgG1, kappa, L234A L235A, N297A, name in Kabat numbering) heavy: QVQLVESGGGVVQPGRSLRLSCAASGFTFSNAWMHWVRQAPGKGLEWVAQIKAKSNNYATYYAESVKGRFTISRDDSKNSLYLQMNSLKTEDTAVYYCRYVHYGAYYGVDAWGQGTTVTVSSASTKGPSVFPLAPSSKSTSGGTAALGCLVKDYFPEPVTVSWNSGALTSGVHTFPAVLQSSGLYSLSSVVTVPSSSLGTQTYICNVNHKPSNTKVDKKVEPKSCDKTHTCPPCPAPEAAGGPSVFLFPPKPKDTLMISRTPEVTCVVVDVSHEDPEVKFNWYVDGVEVHNAKTKPREEQYASTYRVVSVLTVLHQDWLNGKEYKCKVSNKALPAPIEKTISKAKGQPREPQVYTLPPSRCELTKNQVSLSCAVKGFYPSDIAVEWESNGQPENNYKTTPPVLDSDGSFFLVSKLTVDKSRWQQGNVFSCSVMHEALHNHYTQKSLSLSPDYKDDDDK EPKSSDKTHTCPPCPAPELLGGPSVFLFPPKPKDTLMISRTPEVTCVVVDVSHEDPEVKFNWYVDGVEVHNAKTKPREEQYNSTYRVVSVLTVLHQDWLNGKEYKCKVSNKALPAPIEKTISKAKGQPREPQVCTLPPSRDELTKNQVSLWCLVKGFYPSDIAVEWESNGQPENNYKTTPPVLDSDGSFFLYSKLTVDKSRWQQGNVFSCSVMHEALHNRYTQKSLSLSP light: DIVMTQSPLSLPVTPGEPASISCRSSQSLVHSNRNTYIHWYQQKPGQAPRLLIYKVSNRFSGVPDRFSGSGSGTDFTLKISRVEAEDVGVYYCGQGTQVPYTFGQGTKLEIKRTVAAPSVFIFPPSDEQLKSGTASVVCLLNNFYPREAKVQWKVDNALQSGNSQESVTEQDSKDSTYSLSSTLTLSKADYEKHKVYACEVTHQGLSSPVTKSFNRGEC",0.83
4,"GLS3000 L33E one-arm antibody (antibody, human IgG1, kappa, L234A L235A, N297A, name in Kabat numbering) heavy: QVQLVESGGGVVQPGRSLRLSCAASGFTFSNAWMHWVRQAPGKGLEWVAQIKAKSNNYATYYAESVKGRFTISRDDSKNSLYLQMNSLKTEDTAVYYCRYVHYGAYYGVDAWGQGTTVTVSSASTKGPSVFPLAPSSKSTSGGTAALGCLVKDYFPEPVTVSWNSGALTSGVHTFPAVLQSSGLYSLSSVVTVPSSSLGTQTYICNVNHKPSNTKVDKKVEPKSCDKTHTCPPCPAPEAAGGPSVFLFPPKPKDTLMISRTPEVTCVVVDVSHEDPEVKFNWYVDGVEVHNAKTKPREEQYASTYRVVSVLTVLHQDWLNGKEYKCKVSNKALPAPIEKTISKAKGQPREPQVYTLPPSRCELTKNQVSLSCAVKGFYPSDIAVEWESNGQPENNYKTTPPVLDSDGSFFLVSKLTVDKSRWQQGNVFSCSVMHEALHNHYTQKSLSLSPDYKDDDDK EPKSSDKTHTCPPCPAPELLGGPSVFLFPPKPKDTLMISRTPEVTCVVVDVSHEDPEVKFNWYVDGVEVHNAKTKPREEQYNSTYRVVSVLTVLHQDWLNGKEYKCKVSNKALPAPIEKTISKAKGQPREPQVCTLPPSRDELTKNQVSLWCLVKGFYPSDIAVEWESNGQPENNYKTTPPVLDSDGSFFLYSKLTVDKSRWQQGNVFSCSVMHEALHNRYTQKSLSLSP light: DIVMTQSPLSLPVTPGEPASISCRSSQSLVHSNRNTYEHWYQQKPGQAPRLLIYKVSNRFSGVPDRFSGSGSGTDFTLKISRVEAEDVGVYYCGQGTQVPYTFGQGTKLEIKRTVAAPSVFIFPPSDEQLKSGTASVVCLLNNFYPREAKVQWKVDNALQSGNSQESVTEQDSKDSTYSLSSTLTLSKADYEKHKVYACEVTHQGLSSPVTKSFNRGEC",0.72

# Continued, values first:
row,ratio of amount bound vs unaltered GLS3000,Binder
1,0.17,"GLS3000 L33D one-arm antibody (antibody, human IgG1, kappa, L234A L235A, N297A, name in Kabat numbering) heavy: QVQLVESGGGVVQPGRSLRLSCAASGFTFSNAWMHWVRQAPGKGLEWVAQIKAKSNNYATYYAESVKGRFTISRDDSKNSLYLQMNSLKTEDTAVYYCRYVHYGAYYGVDAWGQGTTVTVSSASTKGPSVFPLAPSSKSTSGGTAALGCLVKDYFPEPVTVSWNSGALTSGVHTFPAVLQSSGLYSLSSVVTVPSSSLGTQTYICNVNHKPSNTKVDKKVEPKSCDKTHTCPPCPAPEAAGGPSVFLFPPKPKDTLMISRTPEVTCVVVDVSHEDPEVKFNWYVDGVEVHNAKTKPREEQYASTYRVVSVLTVLHQDWLNGKEYKCKVSNKALPAPIEKTISKAKGQPREPQVYTLPPSRCELTKNQVSLSCAVKGFYPSDIAVEWESNGQPENNYKTTPPVLDSDGSFFLVSKLTVDKSRWQQGNVFSCSVMHEALHNHYTQKSLSLSPDYKDDDDK EPKSSDKTHTCPPCPAPELLGGPSVFLFPPKPKDTLMISRTPEVTCVVVDVSHEDPEVKFNWYVDGVEVHNAKTKPREEQYNSTYRVVSVLTVLHQDWLNGKEYKCKVSNKALPAPIEKTISKAKGQPREPQVCTLPPSRDELTKNQVSLWCLVKGFYPSDIAVEWESNGQPENNYKTTPPVLDSDGSFFLYSKLTVDKSRWQQGNVFSCSVMHEALHNRYTQKSLSLSP light: DIVMTQSPLSLPVTPGEPASISCRSSQSLVHSNRNTYDHWYQQKPGQAPRLLIYKVSNRFSGVPDRFSGSGSGTDFTLKISRVEAEDVGVYYCGQGTQVPYTFGQGTKLEIKRTVAAPSVFIFPPSDEQLKSGTASVVCLLNNFYPREAKVQWKVDNALQSGNSQESVTEQDSKDSTYSLSSTLTLSKADYEKHKVYACEVTHQGLSSPVTKSFNRGEC"
2,0.78,"GLS3000 L33F one-arm antibody (antibody, human IgG1, kappa, L234A L235A, N297A, name in Kabat numbering) heavy: QVQLVESGGGVVQPGRSLRLSCAASGFTFSNAWMHWVRQAPGKGLEWVAQIKAKSNNYATYYAESVKGRFTISRDDSKNSLYLQMNSLKTEDTAVYYCRYVHYGAYYGVDAWGQGTTVTVSSASTKGPSVFPLAPSSKSTSGGTAALGCLVKDYFPEPVTVSWNSGALTSGVHTFPAVLQSSGLYSLSSVVTVPSSSLGTQTYICNVNHKPSNTKVDKKVEPKSCDKTHTCPPCPAPEAAGGPSVFLFPPKPKDTLMISRTPEVTCVVVDVSHEDPEVKFNWYVDGVEVHNAKTKPREEQYASTYRVVSVLTVLHQDWLNGKEYKCKVSNKALPAPIEKTISKAKGQPREPQVYTLPPSRCELTKNQVSLSCAVKGFYPSDIAVEWESNGQPENNYKTTPPVLDSDGSFFLVSKLTVDKSRWQQGNVFSCSVMHEALHNHYTQKSLSLSPDYKDDDDK EPKSSDKTHTCPPCPAPELLGGPSVFLFPPKPKDTLMISRTPEVTCVVVDVSHEDPEVKFNWYVDGVEVHNAKTKPREEQYNSTYRVVSVLTVLHQDWLNGKEYKCKVSNKALPAPIEKTISKAKGQPREPQVCTLPPSRDELTKNQVSLWCLVKGFYPSDIAVEWESNGQPENNYKTTPPVLDSDGSFFLYSKLTVDKSRWQQGNVFSCSVMHEALHNRYTQKSLSLSP light: DIVMTQSPLSLPVTPGEPASISCRSSQSLVHSNRNTYFHWYQQKPGQAPRLLIYKVSNRFSGVPDRFSGSGSGTDFTLKISRVEAEDVGVYYCGQGTQVPYTFGQGTKLEIKRTVAAPSVFIFPPSDEQLKSGTASVVCLLNNFYPREAKVQWKVDNALQSGNSQESVTEQDSKDSTYSLSSTLTLSKADYEKHKVYACEVTHQGLSSPVTKSFNRGEC"
